Patent US20230192867A1 (published 2023)

Columns and labels:
huGARP/hLTGF-β complex [1] = target: T1, huGARP/hLTGF-β complex (human, UniProt P01137 30-390); assay: cell-based or functional assay
huGARP/hLTGF-β complex [2] = target: T1, huGARP/hLTGF-β complex; assay: flow cytometry on activated primary human Tregs, PE secondary antibody
Description: Anti-huGARP antibodies GARP.2, GARP.3, 1H10, 3H5, 22G8 and a hIgG1 isotype control were incubated at 4° C. for 30 minutes with activated Tregs from a healthy donor in a 96 well plate at a starting concentrations of 40 μg/ml followed by serial dilutions. Activated Tregs were prepared from previously isolated and expanded Tregs stimulated for two days with anti-CD3/CD28 activation beads (ThermoFisher, Waltham, Mass., USA) in the presence of 100 units/mL of recombinant human IL-2. An appropriate PE secondary antibody against the primary anti-GARP antibody was applied and washed off after incubation for 15 minutes at 4° C. Samples were processed on a flow cytometer and PE fluorescence intensities analyzed on FLOWJO® flow cytometry system. EC50 calculations were derived using […] PRISM® data analysis software.

T1 sequence (chain, as listed by the source, form in doubt, chain 1 of 2): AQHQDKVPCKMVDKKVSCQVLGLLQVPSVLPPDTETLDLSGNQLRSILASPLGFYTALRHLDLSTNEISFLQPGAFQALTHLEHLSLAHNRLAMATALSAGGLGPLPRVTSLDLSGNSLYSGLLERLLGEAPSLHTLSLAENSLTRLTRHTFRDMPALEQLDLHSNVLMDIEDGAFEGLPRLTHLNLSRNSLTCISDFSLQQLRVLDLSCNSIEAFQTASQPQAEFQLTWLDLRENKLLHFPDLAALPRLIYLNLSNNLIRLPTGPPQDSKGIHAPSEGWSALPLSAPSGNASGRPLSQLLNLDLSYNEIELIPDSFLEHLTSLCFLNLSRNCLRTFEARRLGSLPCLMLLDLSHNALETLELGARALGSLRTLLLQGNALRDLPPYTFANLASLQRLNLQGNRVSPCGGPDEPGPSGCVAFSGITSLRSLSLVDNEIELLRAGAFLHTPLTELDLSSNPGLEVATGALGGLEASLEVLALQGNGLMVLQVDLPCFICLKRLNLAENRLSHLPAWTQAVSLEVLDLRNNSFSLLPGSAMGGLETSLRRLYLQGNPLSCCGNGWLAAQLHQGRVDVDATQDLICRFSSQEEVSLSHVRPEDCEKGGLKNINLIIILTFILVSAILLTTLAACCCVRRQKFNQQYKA
T1 sequence (P01137 30-390, form in doubt, chain 2 of 2): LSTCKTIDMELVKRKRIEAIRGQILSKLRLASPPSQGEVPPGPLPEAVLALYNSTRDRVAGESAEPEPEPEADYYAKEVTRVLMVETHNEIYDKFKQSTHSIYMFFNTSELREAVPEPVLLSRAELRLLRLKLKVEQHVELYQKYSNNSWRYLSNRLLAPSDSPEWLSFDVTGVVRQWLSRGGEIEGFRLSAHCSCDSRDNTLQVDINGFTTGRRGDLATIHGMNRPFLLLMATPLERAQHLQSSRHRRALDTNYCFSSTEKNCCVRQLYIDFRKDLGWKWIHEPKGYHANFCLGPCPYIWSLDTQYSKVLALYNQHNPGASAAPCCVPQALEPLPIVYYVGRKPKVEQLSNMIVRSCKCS

| Binder | TGF-β release (ELISA of soluble TGF-β after six hours, 3A9 cells expressing huGARP/latent TGF-β complex on αvβ8 integrin) (huGARP/hLTGF-β complex [1]) | EC50 (huGARP/hLTGF-β complex [2]) |
| --- | --- | --- |
| anti-huGARP mAb 10H7 (antibody, IgG1, V domains shown) VH: QVQLVESGGGVVQPGRSLRLSCAASEFTFSSYGMYWVRQAPGKGLEWVSIIWHDGSKKYYVDSVKGRFTISRDNSKNTLYLQMNSLRGEDTAVYYCAREQWESWYLDLWGRGTLVTVSS VL: not shown | 16 fold | – |
| anti-huGARP antibody GARP.2 (antibody, V domains shown, Variant of mAb 10H7 with a human IgG1.1 constant domain in place of the original IgG1; also called 10H7/GARP.2) VH: QVQLVESGGGVVQPGRSLRLSCAASEFTFSSYGMYWVRQAPGKGLEWVSIIWHDGSKKYYVDSVKGRFTISRDNSKNTLYLQMNSLRGEDTAVYYCAREQWESWYLDLWGRGTLVTVSS VL: not shown | – | 0.61 nM |
